Experimental findings from article PMC5699643 (Nature microbiology, 2017) are described below.

As a reminder, the stoichiometry N is a count of units in the complex or per binding partner.

The series “crystal structure” deals with the molecule itself. In words: crystal structure.
Series [1] concerns the molecule itself. In words: in vitro reconstitution of S-layer sheets, seen by cryo-EM and cryo-ET.

B1: RsaA(249-1026), the N-terminally cleaved RsaA in the crystals (domain or fragment)
chain: GSTLSLTTGTDTLTGTANNDTFVAGEVAGAATLTVGDTLSGGAGTDVLNWVQAAAVTALPTGVTISGIETMNVTSGAAITLNTSSGVTGLTALNTNTSGAAQTVTAGAGQNLTATTAAQAANNVAVDGGANVTVASTGVTSGTTTVGANSAASGTVSVSVANSSTTTTGAIAVTGGTAVTVAQTAGNAVNTTLTQADVTVTGNSSTTAVTVTQTAAATAGATVAGRVNGAVTITDSAAASATTAGKIATVTLGSFGAATIDSSALTTVNLSGTGTSLGIGRGALTATPTANTLTLNVNGLTTTGAITDSEAAADDGFTTINIAGSTASSTIASLVAADATTLNISGDARVTITSHTAAALTGITVTNSVGATLGAELATGLVFTGGAGADSILLGATTKAIVMGAGDDTVTVSSATLGAGGSVNGGDGTDVLVANVNGSSFSADPAFGGFETLRVAGAAAQGSHNANGFTALQLGATAGATTFTNVAVNVGLTVLAAPTGTTTVTLANATGTSDVFNLTLSSSAALAAGTVALAGVETVNIAATDTNTTAHVDTLTLQATSAKSIVVTGNAGLNLTNTGNTAVTSFDASAVTGTGSAVTFVSANTTVGEVVTIRGGAGADSLTGSATANDTIIGGAGADTLVYTGGTDTFTGGTGADIFDINAIGTSTAFVTITDAAVGDKLDLVGISTNGAIADGAFGAAVTLGAAATLAQYLDAAAAGDGSGTSVAKWFQFGGDTYVVVDSSAGATFVSGADAVIKLTGLVTLTTSAFATEVLTLA
For B1, in the series “crystal structure”, the “stoichiometry N” value was 6.

B2: RsaA, S-layer protein of Caulobacter crescentus CB15N (NA1000), full length, purified (natural protein)
chain: MAYTTAQLVTAYTNANLGKAPDAATTLTLDAYATQTQTGGLSDAAALTNTLKLVNSTTAVAIQTYQFFTGVAPSAAGLDFLVDSTTNTNDLNDAYYSKFAQENRFINFSINLATGAGAGATAFAAAYTGVSYAQTVATAYDKIIGNAVATAAGVDVAAAVAFLSRQANIDYLTAFVRANTPFTAAADIDLAVKAALIGTILNAATVSGIGGYATATAAMINDLSDGALSTDNAAGVNLFTAYPSSGVSGSTLSLTTGTDTLTGTANNDTFVAGEVAGAATLTVGDTLSGGAGTDVLNWVQAAAVTALPTGVTISGIETMNVTSGAAITLNTSSGVTGLTALNTNTSGAAQTVTAGAGQNLTATTAAQAANNVAVDGGANVTVASTGVTSGTTTVGANSAASGTVSVSVANSSTTTTGAIAVTGGTAVTVAQTAGNAVNTTLTQADVTVTGNSSTTAVTVTQTAAATAGATVAGRVNGAVTITDSAAASATTAGKIATVTLGSFGAATIDSSALTTVNLSGTGTSLGIGRGALTATPTANTLTLNVNGLTTTGAITDSEAAADDGFTTINIAGSTASSTIASLVAADATTLNISGDARVTITSHTAAALTGITVTNSVGATLGAELATGLVFTGGAGADSILLGATTKAIVMGAGDDTVTVSSATLGAGGSVNGGDGTDVLVANVNGSSFSADPAFGGFETLRVAGAAAQGSHNANGFTALQLGATAGATTFTNVAVNVGLTVLAAPTGTTTVTLANATGTSDVFNLTLSSSAALAAGTVALAGVETVNIAATDTNTTAHVDTLTLQATSAKSIVVTGNAGLNLTNTGNTAVTSFDASAVTGTGSAVTFVSANTTVGEVVTIRGGAGADSLTGSATANDTIIGGAGADTLVYTGGTDTFTGGTGADIFDINAIGTSTAFVTITDAAVGDKLDLVGISTNGAIADGAFGAAVTLGAAATLAQYLDAAAAGDGSGTSVAKWFQFGGDTYVVVDSSAGATFVSGADAVIKLTGLVTLTTSAFATEVLTLA
As for B2, the binding result in series [1] is reported as “binds”.
